# B1: anfibatide (natural protein)
# chain 1: DVDCLPGWSAYDQSCYRVFKLLKTWDDAEKFCTERPKGGHLVSIESAGERDFVAQLVSENKQTDNVWLGLKIQSKGQQCSTEWTDGSSVSYENFSEYQSKKCFVLEKNTGFRTWLNLNCGSEYAFVCKSPP
# chain 2: GFCCPLRWSSYEGHCYLVVKEKKTWDDAEKFCTEQRKGGHLVSVHSREEADFLVHLAYPILDLSLIWMGLSNMWNDCKREWSDGTKLDFKAWAKTSDCLIGKTDGDNQWLNMDCSKKHYFVCKFKL
# notes: anfibatide (agkisacucetin) alpha-subunit, snaclec of Deinagkistrodon acutus venom; disulfide-linked to the beta-subunit; anfibatide (agkisacucetin) beta-subunit, snaclec of Deinagkistrodon acutus venom; disulfide-linked to the alpha-subunit; Disulfide-linked alpha-beta heterodimer; MALDI-TOF single peak at m/z 29,799.7; also called agkisacucetin
# Tests used:
# [1] = biological target: GPIbα (Homo sapiens) (UniProt P07359); conditions: cited from earlier work
# [2] = biological target: T1, GPIbα on human washed platelets (human (endogenous in platelets), UniProt P07359 17-652); assay: flow cytometry on cells; competition on human washed platelets (2 x 10^7/mL, modified Tyrode's buffer pH 7.4, room temperature, 30 min); ligand: FITC-conjugated mAb LJ-Ib10 at 10 nM; anfibatide 0-200 nM added 5 min before; Ki by Cheng-Prusoff; conditions: one partner purified
# T1 construct: human platelet glycoprotein Ibα, endogenous on the platelet surface; also called platelet GPIbα; glycoprotein (GP) Ibα; source: endogenous, washed platelets of healthy human volunteers
# [3] = biological target: T1, GPIbα on human washed platelets; assay: flow cytometry on cells; competition on human washed platelets (2 x 10^7/mL, modified Tyrode's buffer pH 7.4, room temperature, 30 min); ligand: VWF A1 domain at 1.5 nM with FITC anti-VWF mAb; anfibatide 0-200 nM added 5 min before; Ki by Cheng-Prusoff; conditions: one partner purified
# [4] = biological target: T1, GPIbα on human washed platelets; assay: flow cytometry on cells; competition on human washed platelets (2 x 10^7/mL, modified Tyrode's buffer pH 7.4, room temperature, 30 min); ligand: BP-αFIIa at 80 nM with streptavidin-PE; anfibatide 0-200 nM added 5 min before; Ki by Cheng-Prusoff; conditions: one partner purified
# [5] = biological target: B1; assay: SPR; GPIbαN-Long captured by immobilised anti-SV40 mAb LJ-3A2 on an HC200M chip; anfibatide injected at increasing concentrations, 75 μL/min for 3 min; Biacore 3000; 135 mM NaCl, 20 mM HEPES pH 7.4, 0.005% Tween 20; steady-state mass ratios fit to a one-site model; conditions: both partners purified
molecule,measurement,setting,value
VWF (from UniProt P04275),Kd,[1],1.5 nM
B1,Ki,[2],3.4 ± 1.1 nM
same,Ki,[3],1.2 ± 0.5 nM
same,Ki,[4],1.4 ± 0.1 nM
"GPIbαN-Long WT (domain or fragment, sulfotyrosine at 276, 278, 279 (post translational sulfation that normally occurs at these positions)) HPHPICEVSKVASHLEVNCDKRNLTALPPDLPKDTTILHLSENLLYTFSLATLMPYTRLTQLNLDRCELTKLQVDGTLPVLGTLDLSHNQLQSLPLLGQTLPALTVLDVSFNRLTSLPLGALRGLGELQELYLKGNELKTLPPGLLTPTPKLEKLSLANNNLTELPAGLLNGLENLDTLLLQENSLYTIPKGFFGSHLLPFAFLHGNPWLCNCEILYFRRWLQDNAENVYVWKQGVDVKAMTSNVASVQCDNSDKFPVYKYPGKGCPTLGDEGDTDLYDYYPEEDTEGDK",Kd,[5],21 ± 0.9 nM
"GPIbαN-Long 3Y/F (domain or fragment, no Tyr sulfation at mature 276, 278, 279 (Tyr to Phe). Mature residue 1 = precursor 17 with no residue 0, so -2 = precursor 15. Disulfide-linked dimer through terminal Cys of the C-terminal …) HPHPICEVSKVASHLEVNCDKRNLTALPPDLPKDTTILHLSENLLYTFSLATLMPYTRLTQLNLDRCELTKLQVDGTLPVLGTLDLSHNQLQSLPLLGQTLPALTVLDVSFNRLTSLPLGALRGLGELQELYLKGNELKTLPPGLLTPTPKLEKLSLANNNLTELPAGLLNGLENLDTLLLQENSLYTIPKGFFGSHLLPFAFLHGNPWLCNCEILYFRRWLQDNAENVYVWKQGVDVKAMTSNVASVQCDNSDKFPVYKYPGKGCPTLGDEGDTDLFDFFPEEDTEGDK",Kd,[5],90.5 ± 9.2 nM
